# Target: TCR on the membrane of A2b T cells (rat)
# Test: acceptor-photobleaching FRET; distance is between Rho on the peptide and FITC on the anti-TCR antibody
binder,measurement,value
AVGIGALFLGFLGAAGSTMGARSMTLTVQARQL (modifications not checked) [FP (full length) conjugated to Rhodamine],donor-acceptor distance inferred from FRET,< 50 Å

# — patent publication US20090270312A1, “HIV-I GP41 FUSION PEPTIDES FOR IMMUNOMODULALTION” (priority 2005, published 2009)
